Laboratory results from article PMC11035111, “Angiotension II directly bind P2X7 receptor to induce myocardial ferroptosis and remodeling by activating human antigen R” (Redox Biology, 2024).

Target: T1, biotinylated angiotensin II (biotin (position not given))
T1 construct: angiotensin II, the peptide hormone cut from angiotensinogen; Held by its biotin on the SA chip (BLI) or on streptavidin beads (pull-down); also called Bio-Ang II; bio-Ang II; source: bought: created by Beijing Fanbo Biological Chemical Co., Ltd
Test: BLI; Octet R8; biotinylated Ang II (1 ug/ml in 1x PBS) captured on an SA chip to a signal of 0.8 nm; P2X7R protein in SD buffer at 1, 0.5, 0.25 and 0.0625 uM
Conditions: both partners purified

Kd: 9.63 nM
B1: purified P2X7R protein (extracellular domain) (domain or fragment)
chain: SDKLYQRKEPLISSVHTKVKGVAEVTENVTEGGVTKLVHGIFDTADYTLPLQGNSFFVMTNYLKSEGQEQKLCPEYPSRGKQCHSDQGCIKGWMDPQSKGIQTGRCIPYDQKRKTCEIFAWCPAEEGKEAPRPALLRSAENFTVLIKNNIDFPGHNYTTRNILPGMNISCTFHKTWNPQCPIFRLGDIFQEIGENFTEVAVQGGIMGIEIYWDCNLDSWSHRCQPKYSFRRLDDKYTNESLFPGYNFRYAKYYKENGMEKRTLIKAFGVRFDILVFGTGGKF
